Experimental data: patent publication US10562935B2, “Stapled peptides and uses thereof” (London Health Sciences Centre Research Inc., priority 2015, dated 2020)
Bridges are numbered along the chain shown (N, C = ends).

Key:
NF-κB = test: Inflammation assay: NF-κB inducible SEAP reporter in RAW-Blue macrophages stimulated with PAM3CSK4; type: cell-based, murine; conditions: % inhibition relative to positive control
In short: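 RAW-Blue murine RAW 264.7 macrophages carrying an NF-κB-inducible SEAP reporter were stimulated with 200 ng/mL PAM3CSK4 and given peptide at 10 ng/mL. After 18 h, supernatant SEAP was developed with QUANTI-BLUE for 20 min at 37 °C and read by absorbance at 630 nm. Values are mean and SDM of n=3.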

[1] = Circular dichroism (CD) spectroscopy of linear and stapled peptides in water or 40% TFE/water (Example 3); type: physicochemical; conditions: for [0]208 mean residue ellipticity: λ = 208 nm; for [0]222 mean residue ellipticity: λ = 222 nm
In short: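 Spectra 180–260 nm at 20 °C, 0.5 mM N-acetylated, C-amidated peptides in 0.1M phosphate buffer (water) or 40% TFE/water, 1 mm path, five scans averaged, buffer baseline subtracted. Mean residue ellipticity reported at 222 and 208 nm with the 222/208 ratio as helicity index.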

[2] = test system: IMR90 human fetal lung fibroblasts; test: Fibrosis assay: active TGF-β levels in TGF-β treated fibroblasts (ELISA); type: cell-based; conditions: % inhibition relative to positive control
[3] = test system: RHAMM-overexpressing (LR21) cells; test: Cell migration assay (Boyden chamber, Chemicon ECM510); type: cell-based; conditions: % inhibition relative to positive control
In short: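 Serum-starved LR21 cells (7.5×10^4) placed in the upper Boyden chamber with or without 10 ng/mL peptide, with 30% FBS in DMEM as lower-chamber chemoattractant. Cells crossing the membrane after 20 h quantified by CyQUANT GR fluorescence (480/520 nm); mean of n=3, compared with 30% serum control.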

[4] = [θ]222/[θ]208 ratio in water, summary tables 15, 17, 19
[5] = as repeated in tables 16, 18, 20

Substance | Inflammation (% Inhib.) (NF-κB) | [0]208 mean residue ellipticity at λ=208 nm ([1]; 40% TFE/water) | [0]222/[0]208 ratio of ellipticities ([1]; 40% TFE/water) | [0]222 mean residue ellipticity at λ=222 nm ([1]; 40% TFE/water) [deg cm^2 dmol^−1] | [θ]222/[θ]208 ratio of ellipticities [1, 4] | [θ]222/[θ]208 ratio of ellipticities [1, 5] | [0]208 mean residue ellipticity at λ=208 nm ([1]; water) [deg cm^2 dmol^−1] | [0]222/[0]208 ratio of ellipticities ([1]; water) | [0]222 mean residue ellipticity at λ=222 nm ([1]; water) [deg cm^2 dmol^−1] | Fibrosis (% inhib.) [2] [% inhib.] | Migration (% inhib.) [3] [% inhib.] | [0]222/[0]208 ratio of ellipticities ([1]; in 40% TFE/water) | [0]222/[0]208 ratio of ellipticities ([1]; in water) | [0]208 mean residue ellipticity ([1]; in 40% TFE/water) [deg cm^2 dmol^−1] | [0]208 mean residue ellipticity ([1]; in water) [deg cm^2 dmol^−1] | [0]222 mean residue ellipticity ([1]; in 40% TFE/water) [deg cm^2 dmol^−1] | [0]222 mean residue ellipticity ([1]; in water) [deg cm^2 dmol^−1]
Ac-(cyclo-10-14, cyclo-15-19)-KIKHVVKLK[EENSK][KKSEE]SKLRSQLVKRK-NH2 (Ac-KIKHVVKLKEENSKKKSEESKLRSQLVKRK-NH2; lactam 10-14, 15-19; SMILES CC[C@H](C)[C@H](NC(=O)[C@H](CCCCN)NC(C)=O)C(=O)N[C@@H](CCCCN)C(=O)N[C@@H](Cc1c[nH]cn1)C(=O)N[C@H](C(=O)N[C@H](C(=O)N[C@@H](CCCCN)C(=O)N[C@@H](CC(C)C)C(=O)N[C@@H](CCCCN)C(=O)N[C@H]1CCC(=O)NCCCC[C@@H](C(=O)N[C@H]2CCCCNC(=O)CC[C@@H](C(=O)N[C@@H](CO)C(=O)N[C@@H](CCCCN)C(=O)N[C@@H](CC(C)C)C(=O)N[C@@H](CCCNC(=N)N)C(=O)N[C@@H](CO)C(=O)N[C@@H](CCC(N)=O)C(=O)N[C@@H](CC(C)C)C(=O)N[C@H](C(=O)N[C@@H](CCCCN)C(=O)N[C@@H](CCCNC(=N)N)C(=O)N[C@@H](CCCCN)C(N)=O)C(C)C)NC(=O)[C@H](CCC(=O)O)NC(=O)[C@H](CO)NC(=O)[C@H](CCCCN)NC2=O)NC(=O)[C@H](CO)NC(=O)[C@H](CC(N)=O)NC(=O)[C@H](CCC(=O)O)NC1=O)C(C)C)C(C)C) [Compound 268] | 0 | -.304E04 deg cm^2 dmol^−1 | 0.83 | -2.54E04 | 0.40 | 0.40 | -6.74E+03 | 0.40 | -2.71E+03 | 0 | 0 | – | – | – | – | – | –
Ac-(cyclo-7,11)-NLKQKI[EHVVK]LKDE-NH2 (Ac-NLKQKIEHVVKLKDE-NH2; lactam 7-11; SMILES CC[C@H](C)[C@H](NC(=O)[C@H](CCCCN)NC(=O)[C@H](CCC(N)=O)NC(=O)[C@H](CCCCN)NC(=O)[C@H](CC(C)C)NC(=O)[C@H](CC(N)=O)NC(C)=O)C(=O)N[C@H]1CCC(=O)NCCCC[C@@H](C(=O)N[C@@H](CC(C)C)C(=O)N[C@@H](CCCCN)C(=O)N[C@@H](CC(=O)O)C(=O)N[C@@H](CCC(=O)O)C(N)=O)NC(=O)[C@H](C(C)C)NC(=O)[C@H](C(C)C)NC(=O)[C@H](Cc2c[nH]cn2)NC1=O) [Compound 160] | 0 | – | – | – | 0.55 | 0.55 | – | – | – | 0 | 0 | 0.86 | 0.55 | -1.65E+04 | -6.98E+03 | -1.42E+04 | -3.85E+03
